The values below come from IntAct's records for PubMed 20980406.

Sequences and labels used below:
B1: Band 3 anion transport protein (Homo sapiens), P02730 (parent)
chain: MEELQDDYEDMMEENLEQEEYEDPDIPESQMEEPAAHDTEATATDYHTTSHPGTHKVYVELQELVMDEKNQELRWMEAARWVQLEENLGENGAWGRPHLSHLTFWSLLELRRVFTKGTVLLDLQETSLAGVANQLLDRFIFEDQIRPQDREELLRALLLKHSHAGELEALGGVKPAVLTRSGDPSQPLLPQHSSLETQLFCEQGDGGTEGHSPSGILEKIPPDSEATLVLVGRADFLEQPVLGFVRLQEAAELEAVELPVPIRFLFVLLGPEAPHIDYTQLGRAAATLMSERVFRIDAYMAQSRGELLHSLEGFLDCSLVLPPTDAPSEQALLSLVPVQRELLRRRYQSSPAKPDSSFYKGLDLNGGPDDPLQQTGQLFGGLVRDIRRRYPYYLSDITDAFSPQVLAAVIFIYFAALSPAITFGGLLGEKTRNQMGVSELLISTAVQGILFALLGAQPLLVVGFSGPLLVFEEAFFSFCETNGLEYIVGRVWIGFWLILLVVLVVAFEGSFLVRFISRYTQEIFSFLISLIFIYETFSKLIKIFQDHPLQKTYNYNVLMVPKPQGPLPNTALLSLVLMAGTFFFAMMLRKFKNSSYFPGKLRRVIGDFGVPISILIMVLVDFFIQDTYTQKLSVPDGFKVSNSSARGWVIHPLGLRSEFPIWMMFASALPALLVFILIFLESQITTLIVSKPERKMVKGSGFHLDLLLVVGMGGVAALFGMPWLSATTVRSVTHANALTVMGKASTPGAAAQIQEVKEQRISGLLVAVLVGLSILMEPILSRIPLAVLFGIFLYMGVTSLSGIQLFDRILLLFKPPKYHPDVPYVKRVKTWRMHLFTGIQIICLAVLWVVKSTPASLALPFVLILTVPLRRVLLPLIFRNVELQCLDADDAKATFDEEEGRDEYDEVAMPV

The variants in this experiment derive from B1. To be noted: with g3p_rabit GAPDH.
Take D902A;E903A: the “effect of a mutation on the interaction” value is reported as “decreasing interaction strength”. With D905A;E906A the entry was “with no effect”.

For the variant Y904A, the “effect of a mutation on the interaction” value is “decreasing interaction strength”.
